Consider one protein from US20050186659A1 (published 2005).

The series deals with the molecule itself. Kind of series: analytical ultracentrifugation (sedimentation velocity) in buffer with 0.4-0.6 M GuHCl; self-association of the enzyme. On the procedure: Analytical ultracentrifugation. Velocity sedimentation experiments were performed using an XL-A analytical ultracentrifuge (Beckman Instruments, Palo Alto, Calif.) with an An60-Ti rotor. 11β-HSD1 in 50 mM Tris-HCl, pH 8.0: 1 mM TCEP and increasing concentrations of GuHCl (0-2.0 M) was centrifuged at 40,000 rpm. Solutions containing the same components except the protein were used as references. Scans were collected every 5 min at 280 nm absorption wavelength and the radial distance of the sedimenting boundary r was determined. The sedimentation coefficient was calculated by the gradient of the plot of ln(r) vs ω²t, where ω was the angular velocity and t was the time.
The association state of 11β-HSD1 was investigated by analytical ultracentrifugation. […] When incubated in buffer containing 0.4 M GuHCl, the guinea pig enzyme appeared to be constituted by two major populations (FIG. 5B). This behavior was even more pronounced at 0.6 M GuHCl (FIG. 5C). A molecular weight of approximately 60 kDa can be derived from the sedimentation coefficient of the larger peak, corresponding to a dimeric 11β-HSD1 population, while the second peak may originate from a smaller portion of tetrameric enzyme.

B1: recombinant guinea pig 11β-hydroxysteroid dehydrogenase type 1 (11β-HSD1), catalytic domain with His6 tag (enzyme)
chain: MGSSHHHHHHSSGLVPRGSHMNEKFRPEMLQGKKVIVTGASKGIGREIAYHLAKMGAHVVVTARSKEALQKVVARCLELGAASAHYIAGSMEDMTFAEEFVAEAGNLMGGLDMLILNHVLYNRLTFFHGEIDNVRKSMEVNFHSFVVLSVAAMPMLMQSQGSIAVVSSVAGKITYPLIAPYSASKFALDGFFSTLRSEFLVNKVNVSITLCILGLIDTETAIKATSGIYLGPASPKEECALEIIKGTALRQDEMYYVGSRWVPYLLGNPGRKIMEFLSAAEYNWDNVLSNEKLYGRWA
notes: also called guinea pig 11β-HSD1; guinea pig enzyme
Regarding B1, the binding result is “binds”.
